Experimental data reported in the Human Domainome abundance scans (Beltran et al. 2025).
± gives the uncertainty stated by the source.

B1: Myocardin, residues 363 to 406; numbered along this chain, Q8IZQ8 (parent)
chain: KPGPLPPNLDDLKVSELRQQLRIRGLPVSGTKTALMDRLRPFQD

Variants of: B1
Experiment: abundance fitness (aPCA) (normalised: wild type 0, dead -1); higher = more abundant; growth selection in yeast, the domain comes from the species named
Conditions: Homo sapiens

Row | Variant | abundance fitness
1 | KWGPLPPNLDDLKVSELRQQLRIRGLPVSGTKTALMDRLRPFQD [P2W] | -0.231 ± 0.093
2 | KEGPLPPNLDDLKVSELRQQLRIRGLPVSGTKTALMDRLRPFQD [P2E] | 0.401 ± 0.094
3 | KAGPLPPNLDDLKVSELRQQLRIRGLPVSGTKTALMDRLRPFQD [P2A] | 0.25 ± 0.061
4 | KSGPLPPNLDDLKVSELRQQLRIRGLPVSGTKTALMDRLRPFQD [P2S] | 0.184 ± 0.07
5 | KRGPLPPNLDDLKVSELRQQLRIRGLPVSGTKTALMDRLRPFQD [P2R] | 0.085 ± 0.071
6 | KFGPLPPNLDDLKVSELRQQLRIRGLPVSGTKTALMDRLRPFQD [P2F] | 0.328 ± 0.24
7 | KQGPLPPNLDDLKVSELRQQLRIRGLPVSGTKTALMDRLRPFQD [P2Q] | 0.374 ± 0.073
8 | KYGPLPPNLDDLKVSELRQQLRIRGLPVSGTKTALMDRLRPFQD [P2Y] | 0.136 ± 0.35
9 | KKGPLPPNLDDLKVSELRQQLRIRGLPVSGTKTALMDRLRPFQD [P2K] | 0.284 ± 0.095
10 | KIGPLPPNLDDLKVSELRQQLRIRGLPVSGTKTALMDRLRPFQD [P2I] | 0.466 ± 0.087
11 | KTGPLPPNLDDLKVSELRQQLRIRGLPVSGTKTALMDRLRPFQD [P2T] | -0.016 ± 0.13
12 | KVGPLPPNLDDLKVSELRQQLRIRGLPVSGTKTALMDRLRPFQD [P2V] | 0.39 ± 0.11
13 | KNGPLPPNLDDLKVSELRQQLRIRGLPVSGTKTALMDRLRPFQD [P2N] | -0.011 ± 0.13
14 | KDGPLPPNLDDLKVSELRQQLRIRGLPVSGTKTALMDRLRPFQD [P2D] | 0.407 ± 0.18
15 | KHGPLPPNLDDLKVSELRQQLRIRGLPVSGTKTALMDRLRPFQD [P2H] | -0.093 ± 0.11
16 | KMGPLPPNLDDLKVSELRQQLRIRGLPVSGTKTALMDRLRPFQD [P2M] | 0.387 ± 0.096
17 | KPGPEPPNLDDLKVSELRQQLRIRGLPVSGTKTALMDRLRPFQD [L5E] | -0.13 ± 0.11
18 | KPGPDPPNLDDLKVSELRQQLRIRGLPVSGTKTALMDRLRPFQD [L5D] | -0.245 ± 0.12
19 | KPGPCPPNLDDLKVSELRQQLRIRGLPVSGTKTALMDRLRPFQD [L5C] | -0.044 ± 0.1
20 | KPGPFPPNLDDLKVSELRQQLRIRGLPVSGTKTALMDRLRPFQD [L5F] | -0.307 ± 0.16

Row | Variant | abundance fitness
21 | VPGPLPPNLDDLKVSELRQQLRIRGLPVSGTKTALMDRLRPFQD [K1V] | -0.643 ± 0.1
22 | TPGPLPPNLDDLKVSELRQQLRIRGLPVSGTKTALMDRLRPFQD [K1T] | -0.521 ± 0.13
23 | YPGPLPPNLDDLKVSELRQQLRIRGLPVSGTKTALMDRLRPFQD [K1Y] | -0.608 ± 0.17
24 | WPGPLPPNLDDLKVSELRQQLRIRGLPVSGTKTALMDRLRPFQD [K1W] | -0.98 ± 0.18
25 | RPGPLPPNLDDLKVSELRQQLRIRGLPVSGTKTALMDRLRPFQD [K1R] | -1 ± 0.12
26 | SPGPLPPNLDDLKVSELRQQLRIRGLPVSGTKTALMDRLRPFQD [K1S] | -0.672 ± 0.084
27 | KPGMLPPNLDDLKVSELRQQLRIRGLPVSGTKTALMDRLRPFQD [P4M] | 0.392 ± 0.14
28 | KPGQLPPNLDDLKVSELRQQLRIRGLPVSGTKTALMDRLRPFQD [P4Q] | 0.136 ± 0.074
29 | KPGALPPNLDDLKVSELRQQLRIRGLPVSGTKTALMDRLRPFQD [P4A] | 0.069 ± 0.075
30 | KPGELPPNLDDLKVSELRQQLRIRGLPVSGTKTALMDRLRPFQD [P4E] | 0.107 ± 0.069
31 | KPGVLPPNLDDLKVSELRQQLRIRGLPVSGTKTALMDRLRPFQD [P4V] | 0.09 ± 0.07
32 | KPGGLPPNLDDLKVSELRQQLRIRGLPVSGTKTALMDRLRPFQD [P4G] | -0.229 ± 0.067
33 | KPGNLPPNLDDLKVSELRQQLRIRGLPVSGTKTALMDRLRPFQD [P4N] | 0.463 ± 0.12
34 | KPGFLPPNLDDLKVSELRQQLRIRGLPVSGTKTALMDRLRPFQD [P4F] | 0.755 ± 0.26
35 | KPGKLPPNLDDLKVSELRQQLRIRGLPVSGTKTALMDRLRPFQD [P4K] | 0.371 ± 0.079
36 | KPGHLPPNLDDLKVSELRQQLRIRGLPVSGTKTALMDRLRPFQD [P4H] | 0.093 ± 0.076
37 | KPGCLPPNLDDLKVSELRQQLRIRGLPVSGTKTALMDRLRPFQD [P4C] | -0.079 ± 0.13
38 | KPGTLPPNLDDLKVSELRQQLRIRGLPVSGTKTALMDRLRPFQD [P4T] | 0.329 ± 0.099
39 | KPGDLPPNLDDLKVSELRQQLRIRGLPVSGTKTALMDRLRPFQD [P4D] | 0.276 ± 0.08
40 | KPGRLPPNLDDLKVSELRQQLRIRGLPVSGTKTALMDRLRPFQD [P4R] | -0.059 ± 0.08

Row | Variant | abundance fitness
41 | KPGYLPPNLDDLKVSELRQQLRIRGLPVSGTKTALMDRLRPFQD [P4Y] | 0.368 ± 0.077
42 | KPGSLPPNLDDLKVSELRQQLRIRGLPVSGTKTALMDRLRPFQD [P4S] | 0.078 ± 0.079
43 | KPGLLPPNLDDLKVSELRQQLRIRGLPVSGTKTALMDRLRPFQD [P4L] | 0.102 ± 0.076
44 | KPTPLPPNLDDLKVSELRQQLRIRGLPVSGTKTALMDRLRPFQD [G3T] | 0.099 ± 0.099
45 | KPLPLPPNLDDLKVSELRQQLRIRGLPVSGTKTALMDRLRPFQD [G3L] | -0.025 ± 0.08
46 | KPYPLPPNLDDLKVSELRQQLRIRGLPVSGTKTALMDRLRPFQD [G3Y] | -0.067 ± 0.13
47 | KPRPLPPNLDDLKVSELRQQLRIRGLPVSGTKTALMDRLRPFQD [G3R] | 0.016 ± 0.063
48 | KPDPLPPNLDDLKVSELRQQLRIRGLPVSGTKTALMDRLRPFQD [G3D] | -0.228 ± 0.12
49 | KPMPLPPNLDDLKVSELRQQLRIRGLPVSGTKTALMDRLRPFQD [G3M] | 0.146 ± 0.076
50 | KPWPLPPNLDDLKVSELRQQLRIRGLPVSGTKTALMDRLRPFQD [G3W] | -0.607 ± 0.083
51 | KPPPLPPNLDDLKVSELRQQLRIRGLPVSGTKTALMDRLRPFQD [G3P] | -0.265 ± 0.13
52 | KPSPLPPNLDDLKVSELRQQLRIRGLPVSGTKTALMDRLRPFQD [G3S] | -0.077 ± 0.088
53 | KPCPLPPNLDDLKVSELRQQLRIRGLPVSGTKTALMDRLRPFQD [G3C] | -0.792 ± 0.23
54 | KPVPLPPNLDDLKVSELRQQLRIRGLPVSGTKTALMDRLRPFQD [G3V] | 0.102 ± 0.088
55 | KPQPLPPNLDDLKVSELRQQLRIRGLPVSGTKTALMDRLRPFQD [G3Q] | 0.295 ± 0.099
56 | KPKPLPPNLDDLKVSELRQQLRIRGLPVSGTKTALMDRLRPFQD [G3K] | 0.245 ± 0.12
57 | KPAPLPPNLDDLKVSELRQQLRIRGLPVSGTKTALMDRLRPFQD [G3A] | 0.126 ± 0.088
58 | KPHPLPPNLDDLKVSELRQQLRIRGLPVSGTKTALMDRLRPFQD [G3H] | 0.059 ± 0.12
